koff data for one molecule are collected here from PMC3608519 (Journal of immunology (Baltimore, Md. : 1950), 2013).

The target in the experiment is RSV fusion (F) protein ectodomain (Human respiratory syncytial virus; …, UniProt P03420). As to the kind of experiment: SPR. On the technique in general: Surface plasmon resonance follows binding to a sensor surface in real time, without labels.
Sequence of RSV fusion (F) protein ectodomain (P03420 26-524): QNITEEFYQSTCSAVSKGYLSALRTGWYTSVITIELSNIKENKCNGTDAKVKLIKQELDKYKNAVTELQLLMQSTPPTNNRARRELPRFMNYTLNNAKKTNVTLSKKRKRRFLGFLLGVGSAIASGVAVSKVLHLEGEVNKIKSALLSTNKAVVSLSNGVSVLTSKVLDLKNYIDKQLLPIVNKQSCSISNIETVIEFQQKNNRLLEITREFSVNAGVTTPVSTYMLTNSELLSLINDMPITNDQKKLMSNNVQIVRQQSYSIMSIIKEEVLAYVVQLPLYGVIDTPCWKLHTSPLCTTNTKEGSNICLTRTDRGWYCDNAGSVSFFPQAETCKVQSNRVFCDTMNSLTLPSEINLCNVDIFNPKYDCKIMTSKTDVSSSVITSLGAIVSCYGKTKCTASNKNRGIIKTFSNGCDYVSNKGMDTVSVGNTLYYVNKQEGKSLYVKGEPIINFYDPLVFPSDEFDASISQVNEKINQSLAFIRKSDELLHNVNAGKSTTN

B1: Fab19 (fully matured, wild-type) (Fab, V domains shown)
VH: VQLLEVESGGGLRPGGSLRLSCAASGTTLSGYTMHWVRQAPGKGLEWVSSITGGSNFINYSDSVKGRFTISRDNAKNSLYLQMNSLTAEDTAVYYCATAPIAPPYFDHWGQGTLVTVSS
VL: ELTQSPSSLSASVGDRVTITCRATQSVSNFLNWYQQKPGEAPTLLIYDASTSQSGVPSRFSGSGSGMDFSLTISSLQPEDLAMYYCQASINTPLFGGGTRIDMR
One may read the koff as a measure of how fast the partners let go of each other. A higher koff goes with a short-lived complex. In turn, B1 came in with a koff of 0.0057 s⁻¹.
